According to the supplement of paper PMC7125110:
± gives the standard error. Fewer inactive variants are shown than the library holds.

B1: glmS ribozyme (parent)
chain: AUAAAAGCGCCAGAACUACAGAAAUGUAGUUGACGAGGAGGAGGUUUAUCGAAUUUUCGGCGGAUGCCUCCAAA

What was measured:
Conditions in all cases: with glucosamine-6-phosphate
glucosamine-6-phosphate [1] = variants of: B1; test: self-cleavage kobs at 160 uM GlcN6P; higher = faster cleavage; RNA array
In short: (§1)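 Tiles bearing barcoded ribozyme variants, transcribed in situ by E. coli RNA polymerase on sequenced MiSeq chips, were imaged over ~14 h at 37 °C using a hybridised Cy3 probe. Glucosamine-6-phosphate was supplied at 40 μM to 10 mM in HEPES/KCl/Mg(OAc)2 buffer. kobs came from one- or two-exponential decay fits to normalised per-tile medians, and weighted Michaelis–Menten fits then provided kcat and KM.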

glucosamine-6-phosphate [2] = variants of: B1; test: self-cleavage kobs at 640 uM GlcN6P; higher = faster cleavage; RNA array
In short: as §1

glucosamine-6-phosphate [3] = variants of: B1; test: self-cleavage kobs at 2500 uM GlcN6P; higher = faster cleavage; RNA array
In short: as §1

glucosamine-6-phosphate [4] = variants of: B1; test: self-cleavage kobs at 10000 uM GlcN6P; higher = faster cleavage; RNA array
In short: as §1

| Variant | self-cleavage kobs at 160 uM GlcN6P (glucosamine-6-phosphate [1]) | self-cleavage kobs at 640 uM GlcN6P (glucosamine-6-phosphate [2]) | self-cleavage kobs at 2500 uM GlcN6P (glucosamine-6-phosphate [3]) | self-cleavage kobs at 10000 uM GlcN6P (glucosamine-6-phosphate [4]) |
| --- | --- | --- | --- | --- |
| AUAAAAGCGCCAGAACUACAGAAAUGUAGUUGAUGAGGAGGAGGUUUAUCGCAUUUUCGGCGGUUGUCUCCAAA [C34U A52C A64U C67U] | < 1e-05 s⁻¹ | < 1e-05 s⁻¹ | < 1e-05 s⁻¹ |  |
| AUAAAAGCGCCAGAACUACAGAAAUGUAGUUGACCAGGAGGAGGUUUAUCGAAUUUUCGGCGGAUGCCUCAAAA [G35C C71A] | < 1e-05 s⁻¹ | < 1e-05 s⁻¹ | < 1e-05 s⁻¹ |  |
| AUAAAAGCGCCAGAACUACAGAAAUGUAGUUGACGUGGAGGAGGUUUAUCGAAUUUUCGGGGGAUGCCUGCAAA [A36U C61G C70G] | 6.28e-05 ± 2.3e-05 s⁻¹ | 9.55e-05 ± 2.6e-05 s⁻¹ |  |  |
| AUAAAAGCGCCAGAACUACAGAAAUGUAGUUGACGCGGAGGGGGUUUAUCGAAUUUUCGGCGGAUGCCUCCAAA [A36C A42G] | < 1e-05 s⁻¹ |  | < 1e-05 s⁻¹ | < 1e-05 s⁻¹ |
| AUAAAAGCGCCAGAACUACAGAAAUGUAGUUGACAAGGAGGAGGUUUAUCGAAUUUUCGGCGGAUGCUUCCAAA [G35A C68U] | < 1e-05 s⁻¹ |  | < 1e-05 s⁻¹ |  |
| AUAAAAGCGCCAGAACUACAGAAAUGUAGUUGAUGAGGAGGAGGUUGAUCGAAUUUUCGGCGGAUGCCUCCAAA [C34U U47G] | < 1e-05 s⁻¹ | < 1e-05 s⁻¹ |  |  |
| AUAAAAGCGCCAGAACUACAGAAAUGUAGUUGUCGAGUAGCAGGUUUAUCGAAUUUUCGGCGGAUUCCUCCAAA [A33U G38U G41C G66U] | < 1e-05 s⁻¹ |  | < 1e-05 s⁻¹ |  |
| AUAAAAGCGCCAGAACUACAGAAAUGUAGUUGAGGAGGAUGAGGUUUAUCGAAUUUUCGGCCGAUGCCUCCAAA [C34G G40U G62C] | < 1e-05 s⁻¹ |  |  |  |
| AUAAAAGCGCCAGAACUACAGAAAUGUAGUUGACGGGGAAGAGAUGUAUCCAAUUUUCGGCGGAUGCCUCCAAA [A36G G40A G44A U46G G51C] | < 1e-05 s⁻¹ |  | < 1e-05 s⁻¹ |  |
| AUAAAAGCGCCAGAACUACAGAAAUGUAGUUGAGGAGGAGGAGGUUUAUCGAAUUUUCGGCGAAUGCCUCCAAA [C34G G63A] | < 1e-05 s⁻¹ | < 1e-05 s⁻¹ | < 1e-05 s⁻¹ | < 1e-05 s⁻¹ |
| AUAAAAGCGCCAGAACUACAGAAAUGUAGUUGAGGAGGAGGAGGUUUAUCGAAUUUUCGGCGGUUGUCUCCAAA [C34G A64U C67U] | < 1e-05 s⁻¹ | < 1e-05 s⁻¹ |  |  |
| AUAAAAGCGCCAGAACUACAGAAAUGUAGUUGAUGAGGAGGAGGUUUAGCGUAUUUUCGGCGGAUGCCUCCAAA [C34U U49G A52U] | < 1e-05 s⁻¹ |  | < 1e-05 s⁻¹ | < 1e-05 s⁻¹ |
| AUAAAAGCGCCAGAACUACAGAAAUGUAGUUGAGGAGGAGGAGGUUUAUCGAAUUUUUGGCGGCUGGCUCCAAA [C34G C58U A64C C67G] | 4.06e-05 ± 2e-05 s⁻¹ | 7.23e-05 ± 2.6e-05 s⁻¹ |  |  |
| AUAAAAGCGCCAGAACUACAGAAAUGUAGUUGAAGAGGAGGAGGUUUAUCGAAUUUGCGGCGGAUGCCUCCAAA [C34A U57G] | < 1e-05 s⁻¹ |  |  | < 1e-05 s⁻¹ |
| AUAAAAGCGCCAGAACUACAGAAAUGUAGUUGAAGAGGAGGAGGUUUAUCGAAUUUUCGGCGGAUUCCUCCAAA [C34A G66U] | < 1e-05 s⁻¹ | < 1e-05 s⁻¹ |  | < 1e-05 s⁻¹ |
| AUAAAAGCGCCAGAACUACAGAAAUGUAGUUGAAGAGGAGGAGGUUUAUCGAAUUUUAGGCGGAUGCCUCCAAA [C34A C58A] | < 1e-05 s⁻¹ | < 1e-05 s⁻¹ | < 1e-05 s⁻¹ | < 1e-05 s⁻¹ |
| AUAAAAGCGCCAGAACUACAGAAAUGUAGUUGACUAGGAGGAGGUUUAUCGAAUUUUCGGCGGAUGCCACCAAA [G35U U69A] | < 1e-05 s⁻¹ | < 1e-05 s⁻¹ | < 1e-05 s⁻¹ |  |
| AUAAAAGCGCCAGAACUACAGAAAUGUAGUUGACGCGGAAGAGGUUUAUCGAAUUUUCGGCGGAUGCCUCCAAA [A36C G40A] | < 1e-05 s⁻¹ | < 1e-05 s⁻¹ |  | < 1e-05 s⁻¹ |
| AUAAAAGCGCCAGAACUACAGAAAUGUAGUUGAAGAGGAGGAGGGUUAUCGAAUUUUCGGCGGAUUCCGCCAAA [C34A U45G G66U U69G] | < 1e-05 s⁻¹ | < 1e-05 s⁻¹ | < 1e-05 s⁻¹ |  |
| AUAAAAGCGCCAGAACUACAGAAAUGUAGUUGACGGGGAGAAGGUUUAUCGAAUUUUCGGCGUAUGCCUCCAAA [A36G G41A G63U] | < 1e-05 s⁻¹ | < 1e-05 s⁻¹ |  |  |
| AUAAAAGCGCCAGAACUACAGAAAUGUAGUUGAGGAGUAGGAGCUUUACCGAAUUUUCGGCGGAUGCCUCCAAA [C34G G38U G44C U49C] | < 1e-05 s⁻¹ |  |  |  |
| AUAAAAGCGCCAGAACUACAGAAAUGUAGUUGAAGAGGAGCAGGUUUAUCGAAUUUUCGGCGGAUGCCUCCAAA [C34A G41C] | < 1e-05 s⁻¹ | < 1e-05 s⁻¹ | < 1e-05 s⁻¹ | < 1e-05 s⁻¹ |
| AUAAAAGCGCCAGAACUACAGAAAUGUAGUUGACGCGGAGCAGGUUUAUUGAAUUUUCGGCGGUUGCAUCCAAA [A36C G41C C50U A64U C68A] | < 1e-05 s⁻¹ | < 1e-05 s⁻¹ | < 1e-05 s⁻¹ | < 1e-05 s⁻¹ |
| AUAAAAGCGCCAGAACUACAGAAAUGUAGUUGACCAGGAGGAGGUUUAGCGAAUUUUCGGCGGAUGCCUCCAAA [G35C U49G] | < 1e-05 s⁻¹ | < 1e-05 s⁻¹ | < 1e-05 s⁻¹ |  |
| AUAAAAGCGCCAGAACUACAGAAAUGUAGUUGUCCAGGAGGAGGUUUAUCGAAUUUCCGGCGGACGCCUCCAAA [A33U G35C U57C U65C] | < 1e-05 s⁻¹ | < 1e-05 s⁻¹ | < 1e-05 s⁻¹ |  |
| AUAAAAGCGCCAGAACUACAGAAAUGUAGUUGACGCGGAGGAGGUUGAUCGAAUUUUCGGCGGAUGCCGCCAAA [A36C U47G U69G] | 0.000151 ± 3.4e-05 s⁻¹ | 8.37e-05 ± 1.5e-05 s⁻¹ | 0.000213 ± 6e-05 s⁻¹ |  |
| AUAAAAGCGCCAGAACUACAGAAAUGUAGUUGUCGAGAGGGAGGUUUAUCGAAUUUUCGGCGGAUGCCUCCAAA [A33U G38A A39G] | < 1e-05 s⁻¹ | < 1e-05 s⁻¹ |  |  |
| AUAAAAGCGCCAGAACUACAGAAAUGUAGUUGACCACGAGGAGGUCUAUCGAAUUUUCGGCGUAUGCCUCCAAA [G35C G37C U46C G63U] | < 1e-05 s⁻¹ | < 1e-05 s⁻¹ | < 1e-05 s⁻¹ |  |
